Experimental data reported in PMC10543426, “The PALB2 DNA-binding domain is an intrinsically disordered recombinase” (Research Square, 2023).

Legend:
[1] = biological target: PALB2 coiled-coil (Homo sapiens) (UniProt Q86YC2); assay: NMR titration; settings: cited from earlier work
[2] = biological target: the molecule itself; assay: AUC; sedimentation velocity, protein alone; 1 M NaCl, 10% glycerol, 1 mM TCEP, 2 mM CHAPS, 25 mM HEPES pH 7.5; 30,000 rpm, 20°C, absorbance at 280 nm; relatively high protein concentration
[3] = biological target: the molecule itself; assay: AUC; sedimentation velocity with Cy3-labelled ssDNA (Cy3-dT50 or Cy3-dT25), DNA:protein molar ratios 1:2 and 1:4 (4 and 8 μM protein), 0.1 M NaCl, 10% glycerol, 1 mM TCEP, 2 mM CHAPS, 25 mM HEPES pH 7.5, 20°C, absorbance at 550 nm; dimers to tetramer
PALB2-DBD [4] = biological target: T1, PALB2-DBD (Homo sapiens, UniProt Q86YC2 1-195, I195W); assay: analytical ultracentrifugation; DNA:protein 1:2 and 1:4; no free DNA peak; 0.1 M NaCl; AUC of DNA complexes: 0.1 M NaCl, 20 C; smFRET, EPR and CD buffers not in the material; settings: protein: recombinant; tags: 6xHis-SUMO and MBP, cleaved by Ulp1/TEV; chain copies: 2; label: 5' Cy3; single strand
T1 sequence: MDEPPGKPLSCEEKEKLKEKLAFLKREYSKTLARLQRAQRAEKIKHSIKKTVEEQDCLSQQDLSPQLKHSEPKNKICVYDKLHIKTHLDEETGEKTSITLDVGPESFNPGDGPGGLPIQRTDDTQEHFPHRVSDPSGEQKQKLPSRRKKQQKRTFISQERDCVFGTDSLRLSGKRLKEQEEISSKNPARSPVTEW

PALB2-DBD [5] = biological target: T1, PALB2-DBD; assay: smFRET; mean FRET 0.18 free, 0.45 and 0.79 bound; AUC of DNA complexes: 0.1 M NaCl, 20 C; smFRET, EPR and CD buffers not in the material; settings: protein: recombinant; tags: 6xHis-SUMO and MBP, cleaved by Ulp1/TEV; chain copies: 2; label: 5' Cy3, Cy5 at position 50; single strand
PALB2-DBD [6] = biological target: T1, PALB2-DBD; assay: analytical ultracentrifugation; DNA:protein 1:2 and 1:4; 0.1 M NaCl; AUC of DNA complexes: 0.1 M NaCl, 20 C; smFRET, EPR and CD buffers not in the material; settings: protein: recombinant; tags: 6xHis-SUMO and MBP, cleaved by Ulp1/TEV; chain copies: 2; label: Cy3; single strand

Molecule: PALB2 coiled-coil (from UniProt Q86YC2)
- Kd [1]: 80 µM

B1: PALB2 DNA-binding domain (PALB2-DBD), N-terminal fragment 1-195 I195W (domain or fragment, human, UniProt Q86YC2 1-195, looked up)
chain: MDEPPGKPLSCEEKEKLKEKLAFLKREYSKTLARLQRAQRAEKIKHSIKKTVEEQDCLSQQDLSPQLKHSEPKNKICVYDKLHIKTHLDEETGEKTSITLDVGPESFNPGDGPGGLPIQRTDDTQEHFPHRVSDPSGEQKQKLPSRRKKQQKRTFISQERDCVFGTDSLRLSGKRLKEQEEISSKNPARSPVTEW
notes: Partner and Localizer of BRCA2 (PALB2), human, amino acids 1-195; the last amino acid mutated to tryptophan to increase absorption at 280 nm; SUMO cleaved with Ulp1 and MBP with TEV protease; also called PLAB2-DBD; source: E. coli BL21*, purified (amylose resin, heparin, gel filtration); not shown: 6×His-SUMO, N-terminal, cleaved; MBP, C-terminal, cleaved
- stoichiometry N [2]: 2
- stoichiometry N [3]: 4

Molecule: TGGCGACGGCAGCGAGGCTCTCTAC (ssDNA) [Cy3-dT25 (25mer)]
- binding result (PALB2-DBD [4]): binds

Molecule: TTTTTTTTTTTTTTTTTTTTTTTTTTTTTTTTTTTTTTTTTTTTTTTTTT (ssDNA) [Cy3-dT50-Cy5]
- binding result (PALB2-DBD [5]): binds

Molecule: TTTTTTTTTTTTTTTTTTTTTTTTTTTTTTTTTTTTTTTTTTTTTTTTTT (ssDNA) [Cy3-dT50]
- binding result (PALB2-DBD [6]): binds
